How the values were obtained:
[1] = molecular target: T1, human transferrin receptor (hTfR) fused to EGFP, on CHO cells (human, UniProt P02786 1-760); assay: apparent Kd, flow cytometry, CHO cells
T1 construct: whole, on cells; also called human TfR; CHO-hTfR-EGFP; not shown: EGFP from pEGFP-C1 vector, fused to the N-terminal (intracellular) end of hTfR
How it was run: (§1)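 CHO cells expressing TfR-EGFP fusions, blocked in PBS/BSA 2%, then incubated with increasing VHH concentrations for 1 hr at 4° C. Bound VHH detected via anti-6His antibody and Alexa647 secondary, cells PFA-fixed, read by flow cytometry. Apparent Kd from nonlinear fit.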

[2] = molecular target: T2, mouse transferrin receptor (mTfR) fused to EGFP, on CHO cells (mouse, UniProt Q62351 1-763); assay: apparent Kd, flow cytometry, CHO cells
T2 construct: whole, on cells; also called mouse TfR; CHO-mTfR-EGFP; not shown: EGFP
How it was run: as §1

[3] = molecular target: T3, murine TfR expressed by murine neuroblastoma Neuro-2a cells (mouse, UniProt Q62351 1-763); assay: competition with C5-Alexa680 (100 nM) on living Neuro-2a cells, 3 hrs at 37 C, flow cytometry; Ki/app, mean ± SD
T3 construct: whole, on cells; also called mTfR (N2a cells)
Procedure: (§2) The binding of VHH-Oligo and VHH-hFc-Oligo conjugates to mTfR was evaluated using a competition assay on living cells expressing the receptor of interest, namely murine neuroblastoma Neuro-2a cells (N2a). N2a cells were grown in Dulbecco's Modified Eagle Medium (DMEM) GlutaMAX supplemented with 10% v/v FBS in 5% CO₂ at 37° C. Cells were seeded two days before experiments in 96-well plates at a density of 50.000 cells/well. […] Resuspended cells were transferred in a 96-deepwell plate (V-bottom) containing 1% fetal bovine serum (FBS)/0.02% sodium azide in phosphate-buffered saline (PBS) and then centrifuged for 5 min at 2000 rpm at 4° C. After removing the supernatant, 5 mM EDTA in D-PBS and 4% paraformaldehyde (PFA) (v/v 1:1) were added into wells to fix cells for 15 min at room temperature. PFA was removed by centrifugation (5 min, 3000 rpm, 4° C.) and cells were resuspended with 5 mM EDTA in D-PBS. Then the cellular A680-associated fluorescence signal was quantified using an Attune™ NxT flow cytometer (Thermo Fisher Scientific) equipped with Attune™ NxT v3.1.2. Experimental data (experimental triplicates) were fitted with GraphPad Prism® software using a nonlinear fit to determine the apparent Ki inhibition constants.

[4] = molecular target: T4, mouse TfR ectodomain fused to a mouse IgG1 Fc fragment (mouse, UniProt Q62351 89-763); assay: SPR, kinetic
T4 construct: extracellular domain; not shown: mouse IgG1 Fc fragment
How it was run: (§3)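 TfR–mouse Fc fusions, produced in-house, captured on HC 1500M or CM5 chips either directly or via immobilized anti-mouse IgG. VHHs injected in single-cycle or multiple-cycle kinetic mode on Biacore T200.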

[5] = molecular target: T5, human TfR ectodomain fused to a mouse IgG1 Fc fragment (human, UniProt P02786 89-760); assay: SPR, kinetic
T5 construct: extracellular domain; ectodomain fused to the N-terminal end of the Fc, made in-house; not shown: mouse IgG1 Fc fragment
How it was run: as §3

[6] = molecular target: T6, rhesus monkey TfR ectodomain fused to a mouse IgG1 Fc fragment (rhesus monkey, UniProt I0FKY7 89-760); assay: SPR, kinetic
T6 construct: extracellular domain; not shown: mouse IgG1 Fc fragment
How it was run: as §3

[7] = molecular target: T1, human transferrin receptor (hTfR) fused …; assay: competition flow cytometry on CHO-hTfR-EGFP cells, 4 C; VHH competitor in dilution series, phage-C5 tracer at EC80, anti-M13-A647
Procedure: FIGS. 17A-17D: Competition assays between VHHs and phage-VHHs. CHO-hTfR-EGFP cells were incubated 1 hr at 4° C. with VHHs (competitors) at increasing concentrations. Phage-VHHs (tracers) were then added at EC80 and incubated for 1 more hr. Phage-VHHs were detected with an anti-M13-A647 antibody (1/200). Fluorescence levels were assessed using flow cytometry. The ratio of fluorescence intensity for each point was normalized with the corresponding EGFP signal (receptor expression) and gave rise to the arbitrary unit. Data are presented as mean±SEM of independent experiments.
To evaluate whether selected VHHs compete one with the other for binding to the TfR receptor, competition assays using flow cytometry experiments were performed. All experiments were performed in 96 well plates using 2×10⁵ cells/well, at 4° C. with shaking. CHO cell line expressing the hTfR fused to EGFP was saturated with PBS/BSA 2% solution during 30 min to avoid nonspecific binding, followed by incubation with VHH (competitors) at increasing concentrations for 1 hr. Then, phage-VHHs (tracers) at EC80 were added and incubated 1 hr more. To detect the phage-VHHs, cells were washed twice with PBS/BSA 2% and incubated for 1 hr with an Alexa647-conjugated anti-M13 antibody. […] Fluorescence levels were assessed using an Attune NxT flow cytometer (Thermo Fisher Scientific). […]

[8] = molecular target: T3, murine TfR expressed by murine …; assay: competition with the fluorescent reference VHH on Neuro-2a cells as in FIG. 25; Ki/app on mTfR, free VHH
Procedure: as §2

T4 sequence (Q62351 89-763): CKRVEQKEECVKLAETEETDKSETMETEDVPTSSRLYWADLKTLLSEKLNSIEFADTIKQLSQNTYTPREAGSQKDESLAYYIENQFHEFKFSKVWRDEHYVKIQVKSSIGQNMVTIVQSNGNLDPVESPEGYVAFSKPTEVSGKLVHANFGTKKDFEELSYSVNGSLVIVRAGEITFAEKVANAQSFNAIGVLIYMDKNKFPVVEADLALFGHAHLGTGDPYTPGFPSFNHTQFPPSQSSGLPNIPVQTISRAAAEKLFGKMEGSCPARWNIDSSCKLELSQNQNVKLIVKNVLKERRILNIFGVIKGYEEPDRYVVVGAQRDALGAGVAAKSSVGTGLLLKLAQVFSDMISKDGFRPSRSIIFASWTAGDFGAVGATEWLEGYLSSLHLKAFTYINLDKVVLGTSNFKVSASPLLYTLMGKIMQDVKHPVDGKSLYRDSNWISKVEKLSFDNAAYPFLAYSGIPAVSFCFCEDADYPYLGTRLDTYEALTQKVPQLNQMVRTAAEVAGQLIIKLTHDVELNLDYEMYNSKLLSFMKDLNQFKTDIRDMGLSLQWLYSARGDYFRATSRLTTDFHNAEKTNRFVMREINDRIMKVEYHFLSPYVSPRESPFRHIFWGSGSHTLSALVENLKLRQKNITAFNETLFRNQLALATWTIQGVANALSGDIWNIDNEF
T5 sequence (P02786 89-760): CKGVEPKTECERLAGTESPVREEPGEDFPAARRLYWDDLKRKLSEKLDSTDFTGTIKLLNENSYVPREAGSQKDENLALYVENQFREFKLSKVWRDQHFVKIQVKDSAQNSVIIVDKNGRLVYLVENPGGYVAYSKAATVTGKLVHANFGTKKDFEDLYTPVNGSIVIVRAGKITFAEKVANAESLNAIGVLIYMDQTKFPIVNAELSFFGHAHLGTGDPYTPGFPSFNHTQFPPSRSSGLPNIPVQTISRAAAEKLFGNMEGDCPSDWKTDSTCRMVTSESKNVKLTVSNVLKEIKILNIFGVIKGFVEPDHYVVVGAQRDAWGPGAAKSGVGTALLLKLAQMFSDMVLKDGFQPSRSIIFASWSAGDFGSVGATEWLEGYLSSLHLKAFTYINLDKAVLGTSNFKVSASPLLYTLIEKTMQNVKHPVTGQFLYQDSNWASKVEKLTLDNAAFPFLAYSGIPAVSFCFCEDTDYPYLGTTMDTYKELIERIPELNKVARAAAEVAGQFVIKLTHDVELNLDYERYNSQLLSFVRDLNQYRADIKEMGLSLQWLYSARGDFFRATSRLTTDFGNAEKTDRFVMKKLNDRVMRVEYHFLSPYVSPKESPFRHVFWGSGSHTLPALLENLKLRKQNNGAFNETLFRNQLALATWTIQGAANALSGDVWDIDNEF
T1 sequence (P02786 whole entry, the tested form may be a part): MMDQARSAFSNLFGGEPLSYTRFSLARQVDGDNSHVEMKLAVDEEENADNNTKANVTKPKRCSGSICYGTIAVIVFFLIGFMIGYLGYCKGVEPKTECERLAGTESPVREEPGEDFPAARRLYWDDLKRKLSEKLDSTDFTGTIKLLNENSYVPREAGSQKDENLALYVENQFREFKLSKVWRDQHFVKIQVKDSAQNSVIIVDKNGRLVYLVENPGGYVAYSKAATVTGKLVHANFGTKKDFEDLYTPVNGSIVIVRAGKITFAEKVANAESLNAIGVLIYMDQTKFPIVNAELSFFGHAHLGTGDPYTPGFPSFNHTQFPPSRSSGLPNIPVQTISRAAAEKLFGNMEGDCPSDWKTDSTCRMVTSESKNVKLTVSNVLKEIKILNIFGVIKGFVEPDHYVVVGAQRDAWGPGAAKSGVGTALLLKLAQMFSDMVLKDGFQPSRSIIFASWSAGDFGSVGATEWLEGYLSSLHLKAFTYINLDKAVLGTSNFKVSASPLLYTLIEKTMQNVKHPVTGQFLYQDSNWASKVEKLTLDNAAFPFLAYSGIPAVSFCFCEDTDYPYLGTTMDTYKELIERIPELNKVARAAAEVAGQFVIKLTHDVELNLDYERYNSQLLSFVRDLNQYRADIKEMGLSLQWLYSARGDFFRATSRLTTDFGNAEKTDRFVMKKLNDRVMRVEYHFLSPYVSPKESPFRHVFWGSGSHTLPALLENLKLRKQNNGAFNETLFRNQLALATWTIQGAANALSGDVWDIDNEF
T3 sequence (Q62351 whole entry): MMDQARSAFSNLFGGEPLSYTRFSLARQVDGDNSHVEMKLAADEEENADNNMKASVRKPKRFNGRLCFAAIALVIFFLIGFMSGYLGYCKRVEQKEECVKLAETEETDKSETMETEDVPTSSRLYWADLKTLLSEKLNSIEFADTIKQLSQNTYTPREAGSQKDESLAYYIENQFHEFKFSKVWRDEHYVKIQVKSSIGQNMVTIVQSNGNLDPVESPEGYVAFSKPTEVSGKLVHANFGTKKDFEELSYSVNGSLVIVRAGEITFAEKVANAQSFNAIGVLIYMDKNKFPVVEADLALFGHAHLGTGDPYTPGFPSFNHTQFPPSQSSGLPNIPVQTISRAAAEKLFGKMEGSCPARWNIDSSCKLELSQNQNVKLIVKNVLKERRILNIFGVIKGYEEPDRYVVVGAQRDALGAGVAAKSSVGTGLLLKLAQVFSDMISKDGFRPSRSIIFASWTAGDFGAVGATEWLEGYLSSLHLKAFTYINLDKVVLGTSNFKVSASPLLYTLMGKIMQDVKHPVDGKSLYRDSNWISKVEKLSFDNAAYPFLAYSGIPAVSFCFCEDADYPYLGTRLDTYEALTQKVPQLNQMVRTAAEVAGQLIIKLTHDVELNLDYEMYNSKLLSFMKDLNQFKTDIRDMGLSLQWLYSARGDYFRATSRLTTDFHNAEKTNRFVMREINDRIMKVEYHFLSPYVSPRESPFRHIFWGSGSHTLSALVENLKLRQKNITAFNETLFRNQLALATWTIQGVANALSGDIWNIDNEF
T2 sequence (Q62351 whole entry, the tested form may be a part): as the sequence (Q62351 whole entry) above

- Kd [1]: 2.7 nM
- Kd [2]: 50 nM
- Ki [3]: 319 nM
- Kd [4]: 88.5 nM
- koff [4]: 0.0447 s⁻¹
- kon [4]: 915000 M⁻¹ s⁻¹
- Kd [5]: 0.206 nM
- koff [5]: 0.000179 s⁻¹
- kon [5]: 665000 M⁻¹ s⁻¹
- Kd [6]: 5.35 nM
- koff [6]: 0.00774 s⁻¹
- kon [6]: 1.55e+06 M⁻¹ s⁻¹
- IC50 (read off the curve) [7]: ~50 nM
- Ki [8]: 319 nM
B1: VHH A (C5) (VHH)
VHH: EVQLVESGGGVVQPGGSLKLSCVASGTDFSINFIRWYRQAPGKQREFVAGFTATGNTNYADSMKGRFTISRDNTKNAVYLQIDSLKPEDTAVYYCYMLDKWGQGTQVTVSS
notes: form with the C-terminal myc-His6 tag (x = 1), since the VHHs were detected with anti-6His or anti-cMyc; the same holds for m12 to m126
